Experimental data taken from patent US20240254227A1 (Alector, published 2024).
Numbering of substitutions follows the chain as printed. Values belong to the binder of their own block, whether it stands above or below them.

Tests used:
[1] = molecular target: T1, huCD300LB-DAP12 fusion constitutively expressed on 293 Freestyle (Freestyle HEK) cells (human); test: flow cytometry, stable Freestyle HEK cells
T1 construct: also called Human CD300LB-DAP12 chimera
Description: (§1) Other members of the human CD300 family share sequence homology with human CD300LB. Thus, counter screens against binding of the anti-CD300LB antibodies to huCD300A, huCD300C, huCD300LD, huCD300E, huCD300LF, and huCD300G by stable overexpression in Freestyle HEK cells (generation of which is described above) were performed as follows. Cells were counted and labeled with 200 nM CFSE, 500 nM VioBlue, or a combination of the two to discriminate between CD300LB, Parental cells, and the other CD300 family members. Cells were washed thoroughly with PBS containing 2% fetal bovine serum then resuspended at a total of 240,000 cells per well. Hybridoma supernatants (100 L) or purified antibodies at various concentrations were added and incubated for one hour before the cells were washed twice again and stained with an APC-labeled anti-human or anti-mouse secondary antibody. Cells were then analyzed using a BD FACSCanto II. Anti-CD300LB antibodies were analyzed for specific binding to human CD300LB by FlowJo software by gating on live cells, then the APC geometric mean fluorescence intensity (gMFI) calculated for each labeled population. The results are shown in […]
(§2) Freestyle HEK cells were transfected with huCD300A, huCD300C, huCD300D, huCD300E, and huCD300G separately. Then, five stable cell lines from these transfections were pooled; the combined cells are herein known as CD300A/C/D/E/G. Freestyle HEK cells were also transfected with huCD300LB and huCD300F. All transfected cells were then tested for binding of anti-CD300LB antibodies of the present disclosure.
Target sequence in this assay (chain, as listed by the source limits assumed): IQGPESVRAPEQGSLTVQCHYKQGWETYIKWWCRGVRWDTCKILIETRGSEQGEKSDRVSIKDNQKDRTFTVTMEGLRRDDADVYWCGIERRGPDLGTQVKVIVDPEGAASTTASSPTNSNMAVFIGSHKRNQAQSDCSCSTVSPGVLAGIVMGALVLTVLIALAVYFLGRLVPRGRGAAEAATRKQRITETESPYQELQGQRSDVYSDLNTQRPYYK

[2] = molecular target: T2, huCD300F constitutively expressed on 293 Freestyle (Freestyle HEK) cells (human, UniProt Q8TDQ1 20-290); test: flow cytometry, stable Freestyle HEK cells
T2 construct: also called huCD300LF; Human CD300F
T2 sequence: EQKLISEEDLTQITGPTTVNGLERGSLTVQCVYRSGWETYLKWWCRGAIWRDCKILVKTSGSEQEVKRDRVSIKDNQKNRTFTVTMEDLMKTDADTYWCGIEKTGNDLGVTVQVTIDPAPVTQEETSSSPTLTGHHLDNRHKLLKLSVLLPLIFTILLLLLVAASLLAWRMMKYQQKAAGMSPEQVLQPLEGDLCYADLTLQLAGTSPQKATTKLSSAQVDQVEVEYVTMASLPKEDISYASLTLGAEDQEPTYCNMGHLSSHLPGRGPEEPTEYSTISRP
Description: as §1, §2

[3] = molecular target: T3, human CD300LB transiently expressed on HEK293 cells (human, UniProt A8K4G0 18-201); test: flow cytometry, transfected HEK293, 10 ug/mL, isotype subtracted
T3 construct: CD300LB expression constructs'; also called huCD300LB HEK293
T3 sequence: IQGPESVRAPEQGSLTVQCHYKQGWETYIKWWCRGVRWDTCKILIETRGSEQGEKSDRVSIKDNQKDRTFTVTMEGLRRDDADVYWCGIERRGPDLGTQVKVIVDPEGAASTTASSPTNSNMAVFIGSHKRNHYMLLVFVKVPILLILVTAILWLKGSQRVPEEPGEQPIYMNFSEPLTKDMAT
Description: In addition, supernatants or purified antibodies were tested for species crossreactivity by comparing the binding of human, mouse, and cynomolgous monkey CD300LB expressing cell lines. HEK293 were transfected with […] of human, mouse, and cyno CD300LB expression constructs using the Mirus system in 10 cm tissue culture dishes. Cells were then incubated for 24 hours in complete medium. Cells were harvested by incubation in TrypLE Express, then washed with PBS and labeled with 200 nM CFSE, 500 nM VioBlue, or a combination of the two to discriminate between human, mouse, and cyno CD300LB expressing cells. Cells were washed thoroughly with PBS containing 2% fetal bovine serum then resuspended at a total of 240,000 cells per well. Purified antibodies at 10 μg/mL were added and incubated for one hour before the cells were washed again and stained with an APC-labeled anti-human or anti-mouse secondary. Cells were then analyzed using a BD FACSCanto II. Antibodies were analyzed for specific binding to human, mouse, or cyno CD300LB by FlowJo software by gating on live cells, then the APC gMFI calculated for each labeled population minus the gMFI of the isotype control.

[4] = molecular target: T4, recombinant human CD300LB overexpressed on Jurkat cells (human, UniProt A8K4G0 18-201); test: flow cytometry on Jurkat cells overexpressing huCD300LB, apparent KD (Drake & Klakamp fit)
T4 construct: also called huCD300LB; huCD300LB-expressing Jurkat cells
T4 sequence: T3 sequence
Description: Purified anti-CD300LB antibodies of the present disclosure were evaluated for their binding affinity to either Jurkat cells overexpressing recombinant huCD300LB or BaF/3 cells overexpressing recombinant muCD300LB. Binding of anti-CD300LB antibodies to the cells was determined as follows. Cells were harvested, washed, and labeled with propidium iodide for viability discrimination. After washing the cells with PBS, 1×10⁵ cells were aliquoted per well in 96-well U-bottom plates and incubated with 100 μL of purified anti-CD300LB antibody at various concentrations in FACS buffer (PBS+2% FBS). After this primary incubation, the supernatant was removed via centrifugation, the cells washed twice with 150 μL of ice-cold FACS buffer, and then incubated with the appropriate secondary antibody on ice for 30 minutes. Following the secondary antibody incubation, the cells were again washed twice with ice-cold FACS buffer and resuspended in a final volume of 200 L FACS buffer. Flow cytometry analysis was then performed using the FACSCanto system (BD Biosciences).
To determine affinity, antibodies at increasing concentrations were used to stain Jurkat cells overexpressing huCD300LB and geometric MFI values measured by the flow cytometer were analyzed on Prism (Graphpad) software.

[5] = molecular target: T5, human CD300LB on primary human monocytes (human, UniProt A8K4G0 18-201); test: flow cytometry, primary human monocytes donor 1281, 10 ug/mL antibody, isotype control subtracted
T5 construct: Endogenous protein on primary cells; that the target is CD300LB is inferred from the antibodies being anti-CD300LB antibodies; also called Monocyte donor 1281; Monocyte donor 1282
T5 sequence: T3 sequence
Description: (§3) Human monocytes from various donors were isolated from whole blood using RosetteSep Human Monocyte Enrichment Cocktail (Stemcell technologies) and Ficoll centrifugation per manufacturer protocols. After lysing red blood cells with ACK lysing buffer, monocytes were resuspended in complete media (RPMI, 10% FBS, Pen/Strep, L-glutamine, HEPES, non-essential amino acid, Sodium pyruvate). To obtain macrophages from these isolated monocytes, 100 ng/ml human M-CSF and 8% v/v human serum were added to the cells for 5-7 days. Cells were counted on the day of the experiment and plated at 100,000 cells per well in a round-bottom 96 well plate. Cells were incubated with TruStain Fc block and 10 μg/mL antibody for 1 hour on ice before washing with 250 μL ice cold PBS twice. Cells were then incubated with the appropriate APC-conjugated secondary antibodies for 20 minutes in the dark on ice. Finally, cells were washed twice with ice cold FACS buffer and then resuspended in 100 μL FACS buffer containing 1% propidium iodide. Samples were immediately analyzed using a BD FACSCanto flow cytometer. The gMFI was calculated using FlowJo software minus the gMFI of the appropriate isotype control.

[6] = molecular target: T5, human CD300LB on primary human monocytes; test: flow cytometry, primary human monocytes donor 1282, 10 ug/mL antibody, isotype control subtracted
Description: as §3

[7] = molecular target: T5, human CD300LB on primary human monocytes; test: flow cytometry, primary human monocytes donor 1283, 10 ug/mL antibody, isotype control subtracted
Description: as §3

[8] = molecular target: T5, human CD300LB on primary human monocytes; test: flow cytometry, primary human monocytes donor 1284, 10 ug/mL antibody, isotype control subtracted
Description: as §3

[9] = molecular target: T6, human CD300LB on primary human macrophages (human, UniProt A8K4G0 18-201); test: flow cytometry, primary human macrophages donor 1275, 10 ug/mL antibody, isotype control subtracted
T6 sequence: T3 sequence
Description: as §3

[10] = molecular target: T6, human CD300LB on primary human …; test: flow cytometry, primary human macrophages donor 1277, 10 ug/mL antibody, isotype control subtracted
Description: as §3

[11] = molecular target: T6, human CD300LB on primary human …; test: flow cytometry, primary human macrophages donor 1278, 10 ug/mL antibody, isotype control subtracted
Description: as §3

[12] = molecular target: T7, murine CD300LB stably expressed on Jurkat cells (mouse, UniProt Q3U497 18-209); test: flow cytometry, stable Jurkat cells
T7 construct: also called muCD300LB; mouse CD300LB
T7 sequence: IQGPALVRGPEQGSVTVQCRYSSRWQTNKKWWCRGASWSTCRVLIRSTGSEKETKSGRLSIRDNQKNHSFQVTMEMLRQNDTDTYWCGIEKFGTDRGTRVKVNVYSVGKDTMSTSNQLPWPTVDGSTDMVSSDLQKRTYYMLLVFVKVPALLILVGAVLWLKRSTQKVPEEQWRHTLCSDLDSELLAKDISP

[13] = molecular target: T4, recombinant human CD300LB overexpressed …; test: flow cytometry, stable Jurkat cells, supernatant or 10 ug/mL, isotype subtracted
Description: (§4) Purified anti-CD300LB antibodies of the present disclosure were also evaluated for species cross-reactivity to mouse and human CD300LB stably expressed in Jurkat cells (generation of which is described above). Cells were counted and labeled with 200 nM CFSE, 500 nM VioBlue, or a combination of the two to discriminate between human CD300LB, Parental cells and mouse CD300LB. Cells were washed thoroughly with PBS containing 2% fetal bovine serum then resuspended at a total of 240,000 cells per well. Hybridoma supernatants (100 L) or purified antibodies at 10 μg/mL were added and incubated for one hour before the cells were washed again and stained with an APC-labeled anti-human or anti-mouse secondary. Cells were then analyzed using a BD FACSCanto II. Antibodies were analyzed for binding to mouse or human CD300LB by FlowJo software by gating on live cells, then the APC gMFI calculated for each labeled population by subtraction of the gMFI of the appropriate isotype control.

[14] = molecular target: T7, murine CD300LB stably expressed on …; test: as above
Description: as §4

[15] = molecular target: T1, huCD300LB-DAP12 fusion constitutively …; test: flow cytometry, geometric mean (APC-A), FreeStyle HEK cells expressing huCD300LB
Description: as §1

- gMFI [1]: 37900 gMFI
- binding result [2]: no binding
- gMFI [2]: 28 gMFI
- gMFI [3]: 445 gMFI
- Kd [4]: 109 nM
- gMFI [5]: 1370 gMFI
- gMFI [6]: 3070 gMFI
- gMFI [7]: 2580 gMFI
- gMFI [8]: 1040 gMFI
- gMFI [9]: 19700 gMFI
- gMFI [10]: 15700 gMFI
- gMFI [11]: 13300 gMFI
B1: anti-CD300LB antibody CD-09 (antibody, V domains shown)
VH: QVQLVQSGAEVKKPGASVKVSCKASGYTFTTYAVHWVRQAPGQGLEWMGIINPNSGGTNYAQKFQGRVTMTRDTSTSTVYMELSSLRSEDTAVYYCARDIVPMNNFYNYYYGMDVWGQGTTVTVSS
VL: DIQMTQSPSSLSASVGDRVTITCRASQSISSYLNWYQQKPGKAPKLLIYATSTLQSGVPSRFSGSGSGTDFTLTISSLQPEDFATYYCQQSYRIPYTFGQGTKVEIK

- gMFI [1]: 56800 gMFI
- binding result [2]: no binding
- gMFI [2]: 212 gMFI
- gMFI [3]: 774 gMFI
- Kd [4]: 45 nM
- gMFI [5]: 2970 gMFI
- gMFI [6]: 4470 gMFI
- gMFI [7]: 1920 gMFI
- gMFI [8]: 1400 gMFI
- gMFI [9]: 3580 gMFI
- gMFI [10]: 2800 gMFI
- gMFI [11]: 135000 gMFI
B2: anti-CD300LB antibody CD-08 (antibody, V domains shown)
VH: EVQLLESGGGLVQPGGSLRLSCAASGFTFSNAWMSWVRQAPGKGLEWVSVISGSGGRTYYADSVKGRFTISRDNSKNTLYLQMNSLRAEDTAVYYCARDGTTVAPKGMDVWGQGTTVTVSS
VL: B1 VL with R24Q, S28D, S30N, S31N, L33V, T51A, T53N, R93S, I94P, V104L

- binding result [12]: no binding (tested: 10 ug/mL)
- gMFI [1]: 190 gMFI
- gMFI [3]: 207 gMFI
- gMFI [13]: 193 gMFI
- gMFI [14]: 18 gMFI
- binding result [15]: no binding
- Kd [4]: 32 nM
B3: anti-CD300LB antibody CD-04 (antibody, V domains shown)
VH: QVQLQQSGAELVRPGASVTLSCRASGYTFTDFEMHWVKQTPLHGLEWIGAIAPETGGTAYNQKFKGKAILTADKSSSTAYVELRSLTSEDSAVYFCTRLGGMDYWGQGTSVTVSS
VL: DVVMTQTPLSLPVSLGDQASISCRSSQTLVHNNGNTYLYWYLQKPGQSPKLLIYQVSNRFFGVPDRFSGSGSGTDFTLKISRVEAEDLGLYFCSQSTHVPWTFGGGTKLEIK
